Source: patent US20130064833A1

Target: hepatocyte growth factor receptor (HGFR) (UniProt P08581)
Assay: cell-based or functional assay

UniProt P08581, sequence (P08581 25-1390 limits assumed): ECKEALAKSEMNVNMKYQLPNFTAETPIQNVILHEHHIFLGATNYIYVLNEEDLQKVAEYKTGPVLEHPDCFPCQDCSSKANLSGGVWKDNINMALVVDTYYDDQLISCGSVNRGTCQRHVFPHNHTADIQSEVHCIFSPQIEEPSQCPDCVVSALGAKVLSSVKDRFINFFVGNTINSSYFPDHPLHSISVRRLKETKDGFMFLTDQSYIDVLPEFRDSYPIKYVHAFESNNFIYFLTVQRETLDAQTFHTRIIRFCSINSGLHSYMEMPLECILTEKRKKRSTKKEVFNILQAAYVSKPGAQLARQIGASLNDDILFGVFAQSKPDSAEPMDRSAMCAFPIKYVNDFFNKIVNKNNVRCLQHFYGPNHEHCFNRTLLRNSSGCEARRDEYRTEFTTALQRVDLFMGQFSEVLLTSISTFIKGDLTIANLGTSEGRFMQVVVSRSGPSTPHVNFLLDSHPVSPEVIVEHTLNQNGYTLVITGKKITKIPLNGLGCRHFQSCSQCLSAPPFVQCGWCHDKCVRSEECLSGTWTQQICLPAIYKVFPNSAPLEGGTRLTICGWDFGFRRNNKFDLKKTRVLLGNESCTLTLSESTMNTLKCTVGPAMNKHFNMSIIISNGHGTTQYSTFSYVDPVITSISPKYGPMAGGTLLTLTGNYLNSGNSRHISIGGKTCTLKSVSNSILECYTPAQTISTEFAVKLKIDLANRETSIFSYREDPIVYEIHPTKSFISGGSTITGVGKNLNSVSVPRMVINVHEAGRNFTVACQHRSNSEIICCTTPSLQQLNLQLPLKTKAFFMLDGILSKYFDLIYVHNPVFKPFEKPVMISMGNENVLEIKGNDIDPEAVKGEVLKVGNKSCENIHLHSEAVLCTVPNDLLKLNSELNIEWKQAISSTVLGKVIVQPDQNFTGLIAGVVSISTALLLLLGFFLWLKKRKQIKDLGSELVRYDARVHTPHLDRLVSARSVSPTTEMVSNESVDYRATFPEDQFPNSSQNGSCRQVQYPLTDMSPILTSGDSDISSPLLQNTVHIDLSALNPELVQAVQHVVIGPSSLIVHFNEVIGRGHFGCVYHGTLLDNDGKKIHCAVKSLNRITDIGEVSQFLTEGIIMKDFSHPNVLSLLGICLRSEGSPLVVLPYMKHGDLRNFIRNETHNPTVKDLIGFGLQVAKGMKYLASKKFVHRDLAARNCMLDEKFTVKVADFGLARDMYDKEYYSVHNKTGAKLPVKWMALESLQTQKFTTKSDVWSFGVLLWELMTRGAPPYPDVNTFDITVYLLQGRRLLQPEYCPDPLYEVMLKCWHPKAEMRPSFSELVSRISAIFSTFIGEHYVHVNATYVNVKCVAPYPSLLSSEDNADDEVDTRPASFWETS

## hepatocyte growth factor (HGF) (ligand)
  LEC proliferation, minimal effective concentration: 1 ng/mL
